Target: T1, Mouse Gal3 protein (recombinant) (mouse, UniProt P16110 1-264)
T1 construct: Galectin-3, mouse, bought protein; R&D is named as the source only for the BLI assay; also called galectin-3; source: bought: R&D
Assay: BLI; His-tagged CACNG1 (30-109) captured on Ni-NTA biosensors, Gal3 in a concentration gradient, Octet (ForteBio), 30 °C
Details: both partners purified

T1 sequence (P16110 whole entry): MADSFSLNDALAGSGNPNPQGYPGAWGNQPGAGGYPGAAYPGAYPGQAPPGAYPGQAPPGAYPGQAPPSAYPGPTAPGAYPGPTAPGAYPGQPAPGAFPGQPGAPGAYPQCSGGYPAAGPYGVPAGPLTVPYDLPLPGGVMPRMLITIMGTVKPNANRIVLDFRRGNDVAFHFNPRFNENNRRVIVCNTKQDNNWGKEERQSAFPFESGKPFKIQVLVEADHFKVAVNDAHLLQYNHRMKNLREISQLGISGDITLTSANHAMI

Kd: 180 nM
B1: Extracellular domains of mouse CACNG1 (30-109 AA) with His tags (domain or fragment, UniProt O70578 30-109, looked up)
chain: DHWAVLSPHLEHHNETCEAAHFGLWRICTARVAVHNKDKSCEHVTPSGEKNCSYFRHFNPGESSEIFEFTTQKEYSISAA
modifications: includes the two glycosylation sites
notes: CACNG1, mouse, extracellular domains, residues 30-109, including the two glycosylation sites
